Test: yeast display, Sf9 membrane polyspecificity reagent, FACS + sequencing; frameworks hold sequencing errors
Summary of the method: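 Genes from sorted yeast were amplified by colony PCR, read by MiSeq 2 × 250 sequencing and filtered on CDR length. These cells carried a synthetic nanobody library in Saccharomyces cerevisiae BJ5465 and were sorted by FACS into low and high (top ~1%) gates on anti-HA and streptavidin fluorescence. Polyreactivity is labelled according to the gate of origin.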

| Sequence | polyreactivity (PSR sort gate) |
| --- | --- |
| QDQPVESGGGLVQAGGRLRLSCAASGIICSGYAMGWYRQAAGKERELVAAISNDGTRTYYADSVKGRFTISRDNAKNTVYLQMNSLKPEDTAVYYCAAYSRLNVLGYDYWGQGTQVTVSS | high polyreactivity |
| QEQLHESGGGQVQAGGSLLLSCAASGNIIRYYYIGCYRQAPGKEPELVAAITYGTSTNYADSVKGRFTISRDNAKNTVYLQMNSLKPEDTAVYYCAVDVNYGDPLDNWGQGTQVTVSS | high polyreactivity |
| QEQLQESGGCLVQAGCSLRLSCAPSGTISDSGLMGWYRQPQGKERELVAGISSGGITNYADSVKGRLTISRDNAKNTVYLQMNSLKPEDTAVYYCAADSPVSVTADDGYWGQGTQVTVSS | low polyreactivity |
| QEQLQESGGGLVQAGGSLRLSCAASGSIFHLHIMCRYRQAPGKERESVAAISYGTSTYYADSVKGRFTICRDNAKNTVYLQMNSPKPDDTAVYYCAALFLVSKHHHYWGEGTQVTVSS | low polyreactivity |
| QEQLQESGGGQVQAGGSLLLSCAASGNIIRYYYMGWYRQAPGKERELVAAITYGTSTNYADSVKGRFTISRDNAKNTVYLQMNSLKPEDTAVYYFAVDVNYGDPLDNWGQGTQVTVSC | high polyreactivity |
| QEQLVDSGGGLVQAGGSLRLSCAASVRIFGRYVMGWYRQAPGKERELVAAITSRDDSTYYADSVKGRFTISRDNAKNTVYLQMNSLKPEDTAVYYCAATWGRGYDYCGQGTQVTVSS | high polyreactivity |
| QEQLVESGGGLDQAGGSLRLSCAASGSTFYAYAMGWSRQATGKETELVAAISSDGTNYADSVKGRFTISRDNAKNTVYLQMNCLKPEDTAVYYCAADLLLTSSQDNDYWGQGTQVTVSS | low polyreactivity |
| QEQLVESGGGLVQAGGSLRISCAASGFIFGFYAMGWYRQAPGKERELVAAISWSAGSTYFADSVMGRFTISRDNAKNTVYLQMYSLKPEDTAVYYCAAYFDFRDDAVTYDYWGQGTQVTVSS | low polyreactivity |
| QEQLVESGGGLVQAGGSLRLSCAASGRIFPYYAMGWYRPAPGKERELVASITARGGSTYYADSVKGRFTISRDNAKNTVYLQMNSLKPEDTAVYYCATRGYAWSSDKFGYWGQGTQVTVSS | high polyreactivity |
| QEQLVESGGGLVQAGGSLRLSCAASGSIFATYAMGWNRQAPVKERELVAAITSSDGSTNYADSVKGRFTISRDNAKNTVYLLMNSLKPEDTAVYYCAADGTVRSLGRYYHWGQGTQVTVSS | low polyreactivity |
| QEQLVESGGGLVQAGGSLRLSCAAYGSTYNSYVMGWNRQAPVKERELVAAISTSGGRTYYADSVKGRFTISRDNAKNTVYLKMISLKPEDTAVYYCNRVFLKYYESTHWRDYWGQGTKVTVSS | high polyreactivity |
| QEQLVESGGGLVQAGGSLRLSGAASGGIFGRYAMGGYRQAPGKEMELVAAISKRGGSTYYADSVKGRFTISRDNAKNTVYLQMNSLKPEETAFYYCNAAQSVELGYDYWGQGTQVTVSS | high polyreactivity |
| QEQMQEGGGGLVQAGGSLRLICASSGYNFNGDWMGWNRQAPGKERELVATINYGATTNYADSVKGRFTISRDNAKNTVYLQMNSLKPEDTAVYYCAVGGHGAQLYVYWGQGTQVTVSN | high polyreactivity |
| QFHLVESGGGLVQAGGSLRLSCAAAGYTYGYYTMGWYRQAPGKERELVAAIDSGGRTNYADSVKGRFTISRDNAKNTVYLQMNSRKPEDTAVYYCAAESPLYWVDDFESGWRYYYWGQGTQVTVSS | low polyreactivity |
| QFHLVETGGGLVQAGGSLRLSCAASGSTFSDYAMGSYRQAPGKERELVAGITETGTTTYYADSVNGRFTISRDNAKNTDYLQINSLKPEDTAVYYCAAFLVTYYYGTGYYSYDYWGQGTQVTVSS | low polyreactivity |
| QFKLVESGGGLVQAGGSLRLSCAASGFTFRLVKAMRWYRQAPGKERELVAGINSGDITYYADSVKGRFTISRDNAKNTVYLQMNSLKPEDTAVYYCAARVVYGYGHYDYWGQGTQVTVSS | low polyreactivity |
| QFQIEESGGGLVQAGGSLRLSCAASGNTFYWNAMGWYRQAPGKDRELVAAISTTGVSTYYADSVKGRFTISRDNAKITVYLQMNSLKPEDTAVYYCAAEIIGYHTIYDYWGQGTQVTVSS | low polyreactivity |

Reference: the nanobody polyreactivity screen of Harvey et al. (2022)
